Assay results published in the supplement of paper PMC9170038.

Tested on: MS2 coat protein
Experiment: apparent KD of MS2 coat protein; higher = weaker reporter binding
Details: Eterna round: R107
Outline: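 Designed RNA switches were transcribed on-chip from Illumina sequencing clusters. SNAP-549-labelled MS2 coat protein was titrated onto them in twofold steps from 0.7 or 1.5 nM to 3 µM in 100 mM Tris-HCl pH 7.5, 80 mM KCl, 4 mM MgCl2, either without or with constant ligand. Apparent KD reflects the per-design median of normalised cluster binding-curve fits.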

[1] = input ligand: theophylline 20 uM
[2] = input ligand: tryptophan 2.4 mM
[3] = input ligand: theophylline 2 mM

| Sequence | apparent KD of MS2 coat protein (input ligand: arginine 13.2 mM) [nM] | apparent KD of MS2 coat protein [1] [nM] | apparent KD of MS2 coat protein [2] [nM] | apparent KD of MS2 coat protein (input ligand: none) [nM] | apparent KD of MS2 coat protein [3] [nM] |
| --- | --- | --- | --- | --- | --- |
| GGAGGCCUUAGGGAUACCAGCUAAGUUGAGUACAUGAGGAUCACCCAUGUGUUCCCAGAGAGCCCUUGGCAGCCCUCAUCCGUUC [theeternabot_sameState_MS2_Theo_B_7] | 14.5 | 13.9 | 12.4 |  |  |
| GGAUAGAUAGGAGAUACCAGAUACAUAAACAUGAGGAUCACCCAUGUGUCUGCACUAAGUAUCCCUUGGCAGCUCGGAGAUCUGA [#17 Same State - Theophylline B] | 17.4 | 21.7 | 18.5 |  |  |
| GGAUAGGACACGGCCGCCACUACCUAGGAUACUAGCAACAUUUGGGUACACGAGGAUCACCCGUGUAGGACCGGGUGUCCUAUCG | 32.6 | 18.1 | 19.2 | 10.7 | 13.6 |
| GGAUAGGACACGGCCGCCACUAGCUAGGAUACUAGCAACAUUUCCUCACCUGAGGAUCACCCUGGUAGGACCGGGUGUCCUAUCG | 134 | 569 | 394 | 353 | 1390 |
| GGAUAGGACACGGCCGCCACUAGCUAGGAUACUAGCAACAUUUCCUCGCAUGAGGAUCACCCAUGUAGGACCGGGUGUCCUAUCG | 159 | 638 | 484 | 462 | 495 |
| GGAUAGGACACGGCCGCCACUGCCUAGGAUACUAGCAACAUUUGGGUACAUGAGGAUCACCCAUGUAGGACCGGGUGUCCUAUCG | 38.5 | 70.9 |  |  | 70.3 |
| GGAUAGGACAGAAGGAGCGGCAUGGCAGAAACUGCAAUCCUCCUACACGAGGAUCACCCGUGUCAGGUAGGUCGCUGUCCUAUCG [ArgXB 13 #Zipper #MS2Left #StaticStem #Blueprint] | 18.5 | 20.4 | 15 | 15.1 | 19 |
| GGCACAUAGUCGGCCGCCACUACUAACACCUCAGACAACAUGAGGAUCACCCAUGUUCCAGAGUGUAGGACCGGGACUAUGUGCC [Minonka] | 11.7 | 13.7 |  |  | 12.2 |
| GGCGGACUUAUAGAUACCAGCACAUGAGGAUCACCCAUGUUUGGUCGCACCUCAGUCCUGUGCCCUUGGCAGCUAUGAUAGAUUU [Leaatge] | 16.9 | 33.4 | 16.1 |  |  |
| GGCGUGGUCGGAAGGAGCGACAUGAGGAUCACCCAUGUCUCCCGUUAUGGGAGUUCCUUAGGUCAGGUAGGUCGCCGACUGCGGC [#1 Exclusion - Arginine B Attempt #22 (Inspired by Omei)] | 41.6 | 123 | 159 | 231 | 326 |
| GGCUAACAUGAGGAUCACCCAUGUAUUGAUACCAGUAUUUGAAAAUACCCUUGGCAGCAAAUGAAGAGCGUAGCAGGGUCGAUUA [theeternabot_sameState_MS2_Theo_A_7] | 10 | 17 | 12.6 |  |  |
| GGGAGGGAGGCGGCCGCCACUGAUUUUCAUAUAUAUAUAACAUGAGGAUCACCCAUGUAGAUAUACAGGACCGGGCCUUUUUUUU [aaaG] | 14.6 | 33.8 |  |  | 22.8 |
| GGGCCUAUAAGCAGGCCCACAGCGGGUGAUACCAGCAAUAAAACUUGCCCUUGGCAGCACACAGCUACAUGAGGAUCACCCAUGU [Beator] | 41.1 | 72.9 | 62.4 | 45.1 | 70.6 |
| GGGCGAGUGGACCGGCGUGCUCCGCUCCGUCGAGGACCGGUACGGCCGCCACUCGACAUGAGGAUCACCCAUGUGCGAGCUCGCG [#1 Exclusion - Tryptophan A Attempt #14 (HarryS)] | 32.7 | 114 | 86 | 77.5 | 82.4 |
| GGGCGUGUGGUGCGGCGUGUUCCGCUCCGUCGAGGACCGGUACGGCCGCCACUCGACAUGAGGAUCACCCAUGUGCGAGCGCGCG [#1 Exclusion - Tryptophan A Attempt #8 (HarryS)] | 13.2 | 13.2 | 19.2 | 11.5 | 11.7 |
| GGGUAAGAUCCGGAUACCAGCGAACAUGAGGAUCACCCAUGUGAAAUAAGAUAGACUAAACGCCCUUGGCAGCCGAAAUAGCGUU [Same State Theophylline B GF 4] | 17.9 | 84.7 | 44.1 | 46.6 | 48.9 |
| GGGUAUGAUCCGGAUACCAGCGAACAUGAGGAUCACCCAUGUGACCUAAGAUAGGCUCUACGCCCUUGGCAGCCGCGAUCGCAGA [Same State Theophylline B GF9] | 20.4 | 23.2 | 24.7 | 22.3 | 13.3 |
| GGGUAUGAUCCGGAUACCAGCGAACAUGAGGAUCACCCAUGUGACCUAAGAUAGGCUCUACGCCCUUGGCAGCCGCGAUCGCGUU [Same State Theophylline B GF8] | 21.7 | 32 | 29 |  |  |

| Sequence | apparent KD of MS2 coat protein (input ligand: arginine 13.2 mM) [nM] | apparent KD of MS2 coat protein [1] [nM] | apparent KD of MS2 coat protein [2] [nM] | apparent KD of MS2 coat protein (input ligand: none) [nM] | apparent KD of MS2 coat protein [3] [nM] |
| --- | --- | --- | --- | --- | --- |
| GGGUGGUAGGCGGCCGCCACUGAUUUUUAUAUAUAUAUAACAUGAGGAUCACCCAUGUAGAUAUGCAGGACCGGGCCUGUUGUUU [aaaM] | 21.7 | 37.8 | 28.3 | 25 | 46.1 |
| GGGUGGUAGGCGGCCGCCACUGAUUUUUAUUUAUAGAUGACAUGAGGAUCACCCAUGUUUAUAUGCAGGACCGGGCCUGUUGUGG [aaaQ] | 12 | 22.5 |  |  | 17.6 |
| GGGUGUGAUCCGGAUACCAGCGAACAUGAGGAUCACCCAUGUGACCUGAGAUCGGCUCUACGCCCUUGGCAGCCGCGAUCGCAGG [Same State Theophylline B GF12] |  | 105 | 13.1 | 18.8 | 37.9 |
| GGUCUCGAGGGCGAUACCAGCUUGAUCGUACUGGCCUGGUACAUGAGGAUCACCCAUGUAAGCCCUUGGCAGCGCGCUCGAGACC [#1 Exclusion - Theophylline B Attempt #6 (HarryS)] | 7.85 | 18.5 | 17 | 11 | 29.3 |
| GGUGUAUCCAUCGAUACCAGCCACCACCGAUAGACCACAUGAGGAUCACCCAUGUUGGGUGGCCCUUGGCAGCGGUGGCUGUGCC [Same State - Theophylline B Attempt #3 (HarryS)] | 79.9 | 592 | 353 |  |  |
| GGUUACUCUACGGCCGCCACUGAUUAAUUAUAAACCUGUACAUAAACAUGAGGAUCACCCAUGUACAGGACCGGGUAGUGUAACC [Tryptophan B 9] | 30.5 | 46.9 |  |  | 39.1 |
| GGUUGGUGUAGAGAUAUAUUGAUUACUGAAGGAGCGGGAACAAACCCAGGUAGGUCGCAGAGAUCCACAUGAGGAUCACCCAUGU [!0.N] | 35.2 | 58.3 | 41.5 | 31.6 | 39.3 |
| GGUUUGCGGCCUGAUACCAGUGAUGGAUGAACCCUAGUCAACAUGAGGAUCACCCAUGUUCACCCUUGGCAGCAGUGACGCUCGA [theeternabot_exclusion_MS2_Theo_B_34] | 43.2 | 78.7 | 74.1 | 69.7 | 354 |
| GUAAAGUAAAGAAGGAGCGUCGAAAAUGGGUAAACAUGAGGAUCACCCAUGUAAAGGGAACGACAGGUAGGUCGCUUUAUUUUAC [AstromonsSSArgB#17] | 86.7 | 223 | 189 | 199 | 284 |
| GUAAUUAUAAGAAGGAGCGUCGAAAAUGGGUAAACAUGAGGAUCACCCAUGUAAAGGGAACGACAGGUAGGUCGCUUAUGAUUAC [AstromonsSSArgB#22] | 76.5 | 164 | 202 | 185 | 274 |
| GUAAUUAUAAGAAGGAGCGUCGAAAAUGGGUAAACAUGAGGAUCACCCAUGUAAAGGGAACGACAGGUAGGUCGCUUAUGGUUAC [AstromonsSSArgB#24] | 99.2 | 245 | 214 | 200 | 305 |
| GUACAUGAGGAUCACCCAUGUAUAGUUGAAGGAGCGACCGGUGGGUCAGGUAGGUCGCAGCACAUGGCGUCAACCCGUGUAUGCC [#1 Exclusion - Arginine A Attempt #26 (Inspired by Pi)] | 18.1 | 26.7 | 17.2 | 17.6 | 22.1 |
| GUAUUAACAAAAGUUGAUACAGUGGGUGAACGAGGACCGGUACGGCCGCCACUCGGACAUGAGGAUCACCCAUGUCCAUGUGAAA [AstrosExyTryA#12] | 15.9 | 19.2 |  |  | 17.2 |
| GUCCACAGCCGAAGGAGCGCUAGAAGAUGACAUGAGGAUCACCCAUGUGUGUGGUGUGGCUAGCAGGUAGGUCGCGGAGUGGAUU [Exclusion - Arginine B (Freestyle 15)] | 39.7 | 59.3 | 26.1 | 30.5 | 39 |
| GUCCGCAGCCGAAGGAGCGCUAGAAGGUGACAUGAGGAUCACCCAUGUGUGUGAUGUGGCUAGCAGGUAGGUCGCGGAGCGGAUU [Exclusion - Arginine B (Freestyle 18)] | 85.2 | 110 | 61.9 | 59.2 | 76.7 |
| GUCCUCAGCCGAAGGAGCGCUAGAAGGUGACAUGAGGAUCACCCAUGUGUGUGAUGUGGCUAGCAGGUAGGUCGCGGAGAGGAUU [Exclusion - Arginine B (Freestyle 17)] | 107 | 157 | 78.8 | 98.6 | 127 |
| GUCUUGGAAUCGGCCGCCACUACAUGAGGAUCACCCAUGUGGACAAAUAGGGUUUUUAAGCUCGGUAGGACCGGGAUUCGGACAU [Mamaon] | 12.3 | 15.9 | 66 | 14.3 | 18 |
| GUGUGGCGCUCGGCCGCCACUCAGACAUGAGGAUCACCCAUGUAGAACAUGAGGAUCACCCAUGUGAGGACCGGGAGACACACGA [Exclusion Tryptophan B GF11] | 164 | 288 | 308 | 288 | 404 |
